Reference: patent US20240228592A1 (BIO THERA SOLUTIONS, published 2024)

Target: T1, spike-RBD-mFC (sino biologicals) (SARS-COV-2, UniProt P0DTC2 319-541)
T1 construct: domain: RBD; also called spike protein in SARS-COV-2
Assay: ELISA, spike-RBD-mFC coated, anti-human kappa light chain-peroxidase detection

B1: antibody 9 (antibody, V domains shown)
VH: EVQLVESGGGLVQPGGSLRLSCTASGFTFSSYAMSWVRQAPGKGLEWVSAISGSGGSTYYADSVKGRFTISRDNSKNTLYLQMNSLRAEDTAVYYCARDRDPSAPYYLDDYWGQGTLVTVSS
VL: DIQMTQSPSSLSASVGDRVTITCRASQGISSYLAWYQQKPGKAPKLLIYAASSLQSGVPSRFSGSGSGTDFTLTISSLQPEDFATYYCQQHYTTPPTFGQGTKVEIKR
**Q.** With B1 as the binder, how does the EC50 read?
**A.** The EC50 was 2.76 nM.
